{
  "source": "patent US20070099268A1",
  "about": "“Chimeric HCN channels” (priority 2005, published 2007)",
  "molecules": {"B1": {"name": "mHCN2: mouse HCN2 hyperpolarization-activated, cyclic nucleotide-gated channel, wild type (GenBank AJ225122) (protein)", "chain": "MDARGGGGRPGDSPGTTPAPGPPPPPPPPAPPQPQPPPAPPPNPTTPSHPESADEPGPRARLCSRDSACTPGAAKGGANGECGRGEPQCSPEGPARGPKVSFSCRGAASGPSAAEEAGSEEAGPAGEPRGSQASFLQRQFGALLQPGVNKFSLRMFGSQKAVEREQERVKSAGAWIIHPYSDFRFYWDFTMLLFMVGNLIIIPVGITFFKDETTAPWIVFNVVSDTFFLMDLVLNFRTGIVIEDNTEIILDPEKIKKKYLRTWFVVDFVSSIPVDYIFLIVEKGIDSEVYKTARALRIVRFTKILSLLRLLRLSRLIRYIHQWEEIFHMTYDLASAVMRICNLISMMLLLCHWDGCLQFLVPMLQDFPSDCWVSINNMVNHSWSELYSFALFKAMSHMLCIGYGRQAPESMTDIWLTMLSMIVGATCYAMFIGHATALIQSLDSSRRQYQEKYKQVEQYMSFHKLPADFRQKIHDYYEHRYQGKMFDEDSILGELNGPLREEIVNFNCRKLVASMPLFANADPNFVTAMLTKLKFEVFQPGDYIIREGTIGKKMYFIQHGVVSVLTKGNKEMKLSDGSYFGEICLLTRGRRTASVRADTYCRLYSLSVDNFNEVLEEYPMMRRAFETVAIDRLDRIGKKNSILLHKVQHDLSSGVFNNQENAIIQEIVKYDREMVQQAELGQRVGLFPPPPPPQVTSAIATLQQAVAMSFCPQVARPLVGPLALGSPRLVRRAPPGPLPPAASPGPPAASPPAAPSSPRAPRTSPYGVPGSPATRVGPALPARRLSRASRPLSASQPSLPHGVPAPSPAASARPASSSTPRLGPAPTARTAAPSPDRRDSASPGAASGLDPLDSARSRLSSNL"}},
  "system": "Xenopus oocytes",
  "assay": "Two-microelectrode voltage clamp of mHCN2 and mE324A expressed in Xenopus oocytes",
  "format": "cell-based, Xenopus laevis",
  "protocol": "Oocytes were prepared from mature female Xenopus laevis in accordance with an approved protocol as previously described (Yu et al., 2004).\nFor expression of HCN in Xenopus oocytes, oocytes were injected with 5 ng of cRNA made from mouse wild-type mHCN2 and mutant mHCN2 (E324A) plasmids. Injected oocytes were incubated at 18° C. for 24-48 h prior to electrophysiological analysis.\nFor measurements in Xenopus oocytes, oocytes were voltage-clamped using a two-microelectrode voltage clamp technique. The extracellular recording solution (OR2) contained (in mM): NaCl, 80; KCl, 2; MgCl2, 1; and Na-HEPES, 5 (pH 7.6). For the recording of steady state activation of expressed Wt mHCN2, currents were elicited by 2-s long hyperpolarizing pulses between −30 mV and −160 mV with 10 mV increments, followed by a 1-s depolarizing pulse to +15 mV. The holding potential was −30 mV. As to the mHCN2 (E324A), currents were elicited by 3-s-long hyperpolarizing pulses between +20 mV and −130 mV with 10 mV increments, followed by a 1 second depolarizing pulse to +50 mV. The holding potential was +20 mV. To construct the current/voltage relationship for wildtype (Wt) mHCN2, the cell was held at […], the current was elicited by a 2-s hyperpolarizing voltage step to −140 mV to saturate activation, and followed by 2-s depolarizing voltage steps between […] and +50 mV in 10 mV increments. For mHCN2 (E324A), the cell was held at +20 mV, current was elicited by a 1.5-s hyperpolarizing voltage step to −110 mV to saturate activation, and then followed by 1.5-s depolarizing voltage steps between −80 mV and +50 mV in 10 mV increments for the recording of tail currents. To record the current amplitudes for Wt mHCN2, the current was evoked by applying a 3-s hyperpolarizing voltage pulse to −120 mV from a holding potential of −30 mV. For mHCN2 (E324A), the current was evoked by applying a 3-s hyperpolarizing voltage pulse to −120 mV from a holding potential of +20 mV.",
  "note": "“Also recorded” adds a separate entry of the source.",
  "data": [
    {"molecule": "B1", "values": [
      {"measurement": "voltage at which currents saturated", "value": "around −130 mV"},
      {"measurement": "slope (s) with cAMP", "setting": "8-Br-cAMP 1 mM", "value": 9.5, "unit": "mV"},
      {"measurement": "Vh with cAMP", "setting": "8-Br-cAMP 1 mM extracellular", "value": "−84.9", "unit": "mV"},
      {"measurement": "effect of Cs+ on inward current", "setting": "Cs+ 5 mM", "value": "blocked; also recorded: large inhibition"},
      {"measurement": "slope (s), control", "setting": "control", "value": 13.9, "unit": "mV"},
      {"measurement": "activation more negative than mE324A", "setting": "oocytes", "value": 35, "unit": "mV"},
      {"measurement": "half maximal activation (Vh), control", "setting": "oocytes, control", "value": "−92.7", "unit": "mV"},
      {"measurement": "induced current", "setting": "single voltage pulse to −120 mV", "value": "912.7±63.7", "unit": "nA"}
    ]}
  ]
}
